Adhesion and spreading of human foreskin fibroblasts on conjugate addition gels, 6 hours post-seeding data for 1 molecule are collected here from patent EP1292709B1.

The assay has as its target receptors that recognize the sequence GRGDSPG. Briefly: cell-based or functional assay.

Where no end group is shown, it is not given here.

Molecule GC(PEG acrylate)GYGRGDSPG […] yielded an adhesion and spreading of human foreskin fibroblasts on conjugate addition gels, 6 hours post-seeding of 50%.
